Test: soluble on expression in E. coli; label from the status in PepcDB or PDB records

Row | Sequence | soluble on expression in E. coli
1 | SMGSDDEEQEDPADYCKGGYHPVKIGDLFNGRYHVIRKLGWGHFSTVWLCWDMQGKRFVAMKVVKSAQHYTETALDEIKLLKCVRESDPSDPNKDMVVQLIDDFKISGMNGIHVCMVFEVLGHHLLKWIIKSNYQGLPVRCVKSIIRQVLQGLDYLHSKCKIIHTDIKPENILMCVDDAYVRRMAAEATEWQKAGAPPPSGSAVSTAPAADLLVNPLDPRNADKIRVKIADLGNACWVHKHFTEDIQTRQYRSIEVLIGAGYSTPADIWSTACMAFELATGDYLFEPHSGEDYSRDEDHIAHIIELLGSIPRHFALSGKYSREFFNRRGELRHITKLKPWSLFDVLVEKYGWPHEDAAQFTDFLIPMLEMVPEKRASAGECLRHPWLNS | soluble
2 | MTLMNTENEPTGMLTIRVSAMPKDANSAYDIFGGWVMAQMDMAAGIRSAERARGRTVTAAVREMAFARPVKIGDTLCVYTDITRVGRTSITLRVEAWAKRYLSDKRDLVTHAEFIMVALDADGKPTPAPQEDLEHHHHHH | not soluble
3 | MINKDEEVANRFSDPSKKLVEYVTDFSDMRDEDIELTKPIYENYGNFQLLNETGIIRTDEEIKELYNCKGEFGSTDEVTDMSF | not soluble
4 | MKVTVIGCYGGFPAANEATSGYLFQSGDYSLLVDCGSAVLSKLFGYVPAEKLDAVVLSHYHHDHIADIGPLQFAKQVGSFLGKGEHTLPIYGHDADIEQFQKLTYKTHTKGIAYQPDQPLTAGPFTITFLKTIHPVTCYAMRITDGSHTVVYTADSSYQDSFIPFSKDADLLISECNFYADQDGTSAGHMNSLEAGRIAKEAGAGELLLTHLPHFGVHDNLRKEAKTVFNGEVNIAKSGFVWEG | soluble
5 | MGSDKIHHHHHHMLNEIITIYAITDDLLKAIGHDDDIRRDMIDAEIITTALVAAMFFNGNHSKACAYMKDHKLIPNMLEKSRFNLRLHNLSMLLNDLFHQIGMIIKEISDSTEYLLDSFPVTICDNIRIFQVHLIQSEEYRGYIASKKRYFYGVRVQLISTKSGIPVEFAFLPGSANDVRGLNALPFNLPPGSEVYADAAYTDYTVEDDMAQSSQISLKVMRKKNSKRQDQPWNQYVKQYTRHYIETVFSCITCIFPKSIHAVTYEGFLLKLQAFIFAFTLKSAFM | not soluble
6 | SDRFTSQSSFVVRSPKSQSSLNGLGAILQGTGFARAQDDIYTVGEYMRSRSSLDELRKILPVREFYETKGDAFSRFNGFGFRGEEEAFYQYYKNQ | not soluble
7 | MNTPSRTHLVIIPSYNPGPKVYETVQAARRYWNPVWVVVDGSTDGTWEGLLKLSAEDSGLVVLGMPANRGKGAAVLRGLLTSRRKGFTHALVMDSDGQHPADRIPEFMARSQEEPDAMILGVPVFDDSAPSLRVKGRRISNWWANLETLWCGIGDSLFGFGVYPIQALCVIMQDHQWMRRFDFDPEAAVRLCWAGIRPVNLPVPVYYPKPEEGGTSHFHYWRDNALLTWMHVRLMFGFLARLPILLARIVRRPEILEHHHHHH | not soluble
8 | MMLSLNNLQNIIYNPVIPYVGTIPDQLDPGTLIVICGHVPSDADRFQVDLQNGSSVKPRADVAFHFNPRFKRAGCIVCNTLINEKWGREEITYDTPFKREKSFEIVIMVLKDKFQVAVNGKHTLLYGHRIGPEKIDTLGIYGKVNIHSIGFSFSSDLQSTQASSLELTEISRENVPKSGTPQLSLPFAARLNTPMGPGRTVVVKGEVNANAKSFNVDLLAGKSKDIALHLNPRLNIKAFVRNSFLQESWGEEERNITSFPFSPGMYFEMIIYCDVREFKVAVNGVHSLEYKHRFKELSSIDTLEINGDIHLLEVRSW | soluble
9 | MGSDKIHHHHHHMSIQSLLDYISVTPDIRQQGKVKHKLSAILFLTVCAVIAGADEWQEIEDFGHERLEWLKKYGDFDNGIPVDDTIARVVSNIDSLAFEKMFIEWMQECHEITDGEIIAIDGKTIRGSFDKGKRKGAIHMVSAFSNENGVVLGQVKTEAKSNEITAIPELLNLLYLKKNLITIDAMGCQKDIASKIKDKKADYLLAVKGNQGKLHHAFEEKFPVNVFSNYKGDSFSTQEISHGRKETRLHIVSNVTPELL | not soluble
10 | MLLQELLGIDEDIYLIEESYTSQRNPELTLQYLNRFLNFPDIENIRIIRVRQAGHTTGLLFFNPADEDVPVDFWSVFTGAFAQPALKEKFETLADSLLNLTSPEKDIELLHETWFNAVNEYYSLMLVNRNLCTSCSVKPESYGNVFSENRIKRVAEILELLRKKGYYPEGRLLEVCCGNGMSTLALYRSGLDPLAIEINKCTICQGLEQGVLNPQRVMVMDAAAVSRYFEPGSFDAVMGFMLGLVYEFNKGLWVRIVREAVSVAADGAVLLFTVSSKPEIEILADALFRAGVDGEIVDNTDSEGAYDQWLFVGRRQKNTST | not soluble
11 | MGSDKIHHHHHHMGEKMLGIINATGSFPSLKKVTGHRSLAALPFGGRYRLIDFMLSNMVNSNIHSVAVFTSHKNRSLMDHVGSGKQWDLDRKRDGLFLFPPNCQCDQDEFGSFAHFRRHIDYFLRAREEYVVITNSHLVTALNFQAVLERHIHTAADITEVCHEGVSLQTYVLKKQLLLDLFDSYKDVEQYSLFDVVREKRGKSLHIATYEHTGYVAIIDSIESYYKHSLEILQPAIWKQLFKKEAPIFTKVKDEPPTRYVKGAVVKNTMIANGSIIEGEVENSVVSRSVKIGKGSIVRNSIIMQKSQIGDNCIIDGVIIDKDVKIGDGVVLKGNADEPYVVEKGSVQNSTINSYS | not soluble
12 | MTELARLKFYATQPHSCSYLPEEQATTLFLDPSQPMDVHVYADLSEMGFRRSGDHLYRPHCQNCNACVPARIPAARFIPNRQQRRILKRNADLTVTAARPAFKEEYFELYRRYIETRHADGDMYPPSRDQFSTFLVRDLPFCWFYEFRLEGRLMAVAVCDLLPNGLSAVYTFYEPDEERRSLGRFAILWQITEALRQNLEAVYLGYWIKNCKKMNYKTQYRPIELLINQRWVTLNLEHHHHHH | not soluble
13 | MGSDKIHHHHHHMQDIDEFLKKHRITEIEAIIPDMAGIARGKIIPRSKFETGESMRLPQAVMIQTVTGDYPEDGSLTGVTDPDMVCLPDASTIRLIPWAIDPTAQVIHDCVHFDGTPVEISPRRVLRRVLELYKAKGWKPVIAPELEFYLVDMNKDPDLPLAPPIGRTGRPETGRQSYSIEAVNEFDPLFEDIYEYCEVQDLEVDTLIHEVGAAQMEINFLHGDPLNLADRVFLFKRTVREAALRHHMYATFMSKPMENEPGSAMHVHQSIVDEETGRNLFTGDDGGPTDMFYAYIAGLQKYTPALMPIFAPYINSYRRLSRFMAAPINVQWGYDNRTVGFRVPHSSPVSRRVENRIPGVDCNPYLAIAGTLAAGYLGMTRRLEPTEPLASDGYSLPYQLPRNLEEGLTLMSACEPLAEILGEKFVKAYLALKETEYEAFFRVISSWERKHLLLHV | not soluble
14 | MSLSLFQAILTSMEPREGGEKVFPSDLMIARKTKTGIIYPVFLSDDNIDYARAVISVFTLNTGKKKEVIENNLKEIELKFQNAKIIRALSLIMMRKSIFVPPVNIDAQALREYIFSMARIPPINSNEREMILKSAAESFNIDYIDIENAIYADKDSESILERPYNTDEGKLIREYNLEQLETVLLKCTELNISNASDWHFVITMIRRLGLLYEIKNDGDKIISVNITGPMALFENTERYGSKFSMLIRSIYKMNEWSLTASIKVKDFSGDKNIYTLKLSDSAKFFLPPGTIKPEHLPEHVSRGYPIIINNKFYFPDYIIDLDERIYVSINSDEKPDNLNWINVYILSDRDKKKPGSIAFYNDMDWDELFNLISKKRNLSSEIDNYSIDEIKKKLDQIYPDSQGMIDYLESQGLIPLRVLPELGYKIKWKNLDIIIEKAEGHHHHHH | not soluble
15 | ALLAVSMVACTSDEIALIEAMSKTSEISSYEGNSKIQLSFKGQGFSEKTQKVFDFLASYVDGFTFEANQKYSSNDEKTKATLAMDGNVDMQGLSVKYKYWTDMDFTTENPSLIQIVELPPAITQPMFTFANTGTKKYITIDYGSVLSAENNGGISLNPENLAKNSVELQEMLLDFVKTTAKDFDPGMVAVTKKGSAVTDKGEKVTEYELKLDDAAAKKLLHAFINDVILQEDTIEFGKKYMEAAINMYDFPEEEKQEALDEINKGLDEFASQLPAYRDSVTQVFESIKDVKFFGDKGLVAKYYINNDGFLVGGKSSIDIKIKMADFAALLGDNFDEKDKNGVLYLTIDAESSVYNINKEVSIELPEITEENSFDVLKGFMPILSGIGSAPGIGEEDYTYDIPALSDGINVVMNGKVVYFPDVKPENVNGRVLVPIRTISEEMGAEVTYNDATKQVLIAKDDTEILLTIGSQEAYVNGEKIMLDVPAMIIEGRTMVPLRFISESMNATVEWDGEAQIVYIFY | not soluble
16 | MGHHHHHHSHMSSKHDYTNPPWNAKVPVQRAMQWMPISQKAGAAWGVDPQLITAIIAIESGGNPNAVSKSNAIGLMQLKASTSGRDVYRRMGWSGEPTTSELKNPERNISMGAAYLNILETGPLAGIEDPKVLQYALVVSYANGAGALLRTFSSDRKKAISKINDLDADEFLEHVARNHPAPQAPRYIYKLEQALDAM | soluble
17 | MSLCRVLRVKHSSYYDWLSRDISEQQIHRNHCELLVKAAHSETHERYGVERLHAHLSEQGHNISPYMVRSIKEEYSIKCRRHKRFKVTTDSNHNKLVYPNVLDQEFDASRPNQAWASDITYIWTLEGWLYLAGVKDLYTKELVGYAINKRMTADLVCKALNMAIKNKQPSKGLVVHSDRGSQYCSHAYHKIIKQHQFTGSMSGKGNCFDNAPIESFWGILKNELVYHQDYKTRFAAIRDIIGYIELYYNQTRIQKGLGYKSPRQVWFDYYRQAAEGHHHHHH | soluble
18 | MGSDKIHHHHHHMTAIANRYEFVLLFDVENGNPNGDPDAGNMPRIDPETGHGLVTDVCLKRKIRNHVALTKEGAERFNIYIQEKAILNETHERAYTACDLKPEPKKLPKKVEDAKRVTDWMCTNFYDIRTFGAVMTTEVNCGQVRGPVQMAFARSVEPVVPQEVSITRMAVTTKAEAEKQQGDNRTMGRKHIVPYGLYVAHGFISAPLAEKTGFSDEDLTLFWDALVNMFEHDRSAARGLMSSRKLIVFKHQNRLGNAPAHKLFDLVKVSRAEGSSGPARSFADYAVTVGQAPEGVEVKEML | not soluble
19 | MQKQKSFDKQTTKGKLYLVPTPIGNLEDMSIRCLNILKEATVIASEDTRNTQKLLNHFEITTPQISLHEHNYKERIPQLITRLLNGETIAQVSDAGMPSISDPGHELVTACLEEELAVIALPGPTAGMTALIASGLLPQPFTFYGFLPRKKKEQKDVLSALKEERPTQIFYESPYRIAKTVATFAEVYGQERPAVICRELTKLHEEYLRGTLGELTEYLAENTLKGECCLLVSGFTGEKETIAAMPAISLKEHVQVLMEEEGRSSKEAIKEVAKLRNVKKQEVYKEYHSI | not soluble
20 | MGSDKIHHHHHHMKTIMYLHAGAEMYGSDKVLLQLVTGLDKKQFKPIVVLPEHGPLEKALETNDIQTEVVAYPILRRKYFNPKGIFNYASGYFKAEKVLANLAIKYHVDLIHVNTLAVLEGITLKKRIKKPLIWHVHEILLSPKFMWKLTAYLSAKYADKIVVVSNATGEHLKKAGYAKENQIVTIYNGINIPKGLENSDFRQEFDIPKNAFVFGHVGRINAWKGQEDFLKASLKLMSNYSKVHVLFSGNAYKGEEWREEKLKKEINESGFSDRIHYLGFQHEIRKVFNTMNVFVSSSIRPDPFPMVTLEAMANSKPIVSYDHGGPSELIVNAKTGYLVQPHNIDDLSLKMSMLINPKLESKFGVVGRKRVLSEFSETKFLQNFSFLYGDM | not soluble
